Reference: patent publication US20220281949A1 (UNIVERSITY HEALTH NETWORK, published 2022)

Target: T1, soluble CD4 (sCD4): human CD4 extracellular domain fused with a 6×His tag via a GS linker (human, UniProt P01730 26-396)
T1 construct: Produced in HEK293T supernatant; for staining the monomer was dimerized with a PE-labeled anti-6×His mAb (AD1.1.10); also called dimerized sCD4
Test: flow cytometry: K562 cells expressing the class II molecule stained with sCD4 dimerized by PE anti-His mAb

binding result: no binding
B1: wild-type DR1 (DRA1*01:01/DRB1*01:01) on K562 cells (peptide-MHC, human)
MHC II alpha: not shown
MHC II beta: not shown
notes: whole, on cells; Stably transduced in class II-deficient K562 cells
